Experimental data: article PMC5511257, “Plasticity in the Oxidative Folding Pathway of the High Affinity Nerita Versicolor Carboxypeptidase Inhibitor (NvCI)” (Scientific Reports, 2017)
Values belong to the binder of their own block, whether it stands above or below them. Bridges are numbered along the chain shown (N, C = ends). Where no end group is shown, it is not given here.

Columns and labels:
Conditions in all cases: both partners purified
[1] = molecular target: T1, Human carboxypeptidase B1 (hCPB1) (human, UniProt P15086 111-417); experiment: enzyme inhibition kinetics (tight-binding inhibitor, Morrison equation); CPBs: inhibition of hydrolysis of N-(4-methoxyphenylazoformyl)-Arg-OH (0.1 mM) at 355 nm; 20 mM Tris-HCl pH 7.5, 1% v/v DMSO, 0.05% w/v Brij-35, 0.1 M NaCl; 37 °C; enzyme constant (6.0 nM hCPB1 and pCPB1), increasing amounts of inhibitor
T1 construct: also called human CPB1
T1 sequence (looked up): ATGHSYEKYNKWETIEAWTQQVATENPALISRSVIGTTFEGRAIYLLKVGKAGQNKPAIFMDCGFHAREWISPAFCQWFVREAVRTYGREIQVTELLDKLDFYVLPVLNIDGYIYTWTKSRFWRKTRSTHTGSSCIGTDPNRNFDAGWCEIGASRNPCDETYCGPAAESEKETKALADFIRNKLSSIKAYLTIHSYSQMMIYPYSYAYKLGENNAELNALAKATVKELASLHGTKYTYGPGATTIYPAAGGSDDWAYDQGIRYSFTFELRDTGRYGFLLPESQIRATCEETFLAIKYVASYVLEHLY

[2] = molecular target: T2, Porcine carboxypeptidase B (pCPB1) (porcine, UniProt P09955 111-416); experiment: as above
T2 construct: Porcine carboxypeptidase B (CPB1), purchased active enzyme; also called porcine CPB1; source: bought: Sigma
T2 sequence (looked up): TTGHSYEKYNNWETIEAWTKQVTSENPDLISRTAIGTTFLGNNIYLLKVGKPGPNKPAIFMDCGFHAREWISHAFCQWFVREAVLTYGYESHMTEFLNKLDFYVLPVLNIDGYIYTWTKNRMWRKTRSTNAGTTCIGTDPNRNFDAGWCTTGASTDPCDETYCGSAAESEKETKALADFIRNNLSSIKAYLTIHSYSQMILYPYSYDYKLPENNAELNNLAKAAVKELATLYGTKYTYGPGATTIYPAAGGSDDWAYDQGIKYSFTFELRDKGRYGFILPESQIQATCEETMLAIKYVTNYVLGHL

[3] = molecular target: T3, Human carboxypeptidase A1 (hCPA1) (human, UniProt P15085 111-419); experiment: enzyme inhibition kinetics (tight-binding inhibitor, Morrison equation); CPAs: inhibition of hydrolysis of N-(4-methoxyphenylazoformyl)-Phe-OH (0.1 mM) at 355 nm; 20 mM Tris-HCl pH 7.5, 1% v/v DMSO, 0.05% w/v Brij-35, 0.5 M NaCl; 37 °C; enzyme constant (7.5 nM hCPA1, 6.0 nM bCPA1), increasing amounts of inhibitor
T3 construct: also called human CPA1
T3 sequence (looked up): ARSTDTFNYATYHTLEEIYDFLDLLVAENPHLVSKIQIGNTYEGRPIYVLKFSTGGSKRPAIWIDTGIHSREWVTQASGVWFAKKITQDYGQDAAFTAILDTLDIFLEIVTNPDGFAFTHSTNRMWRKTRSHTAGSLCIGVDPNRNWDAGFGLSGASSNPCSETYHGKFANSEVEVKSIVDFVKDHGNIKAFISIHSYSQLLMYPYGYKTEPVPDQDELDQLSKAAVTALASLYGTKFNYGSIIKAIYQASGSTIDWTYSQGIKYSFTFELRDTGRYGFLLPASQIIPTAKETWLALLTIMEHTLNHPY

[4] = molecular target: T4, Bovine carboxypeptidase A (bCPA1) (bovine, UniProt P00730 111-419); experiment: as above
T4 construct: Bovine carboxypeptidase A (CPA1), purchased active enzyme; also called bovine CPA1; source: bought: Sigma
T4 sequence (looked up): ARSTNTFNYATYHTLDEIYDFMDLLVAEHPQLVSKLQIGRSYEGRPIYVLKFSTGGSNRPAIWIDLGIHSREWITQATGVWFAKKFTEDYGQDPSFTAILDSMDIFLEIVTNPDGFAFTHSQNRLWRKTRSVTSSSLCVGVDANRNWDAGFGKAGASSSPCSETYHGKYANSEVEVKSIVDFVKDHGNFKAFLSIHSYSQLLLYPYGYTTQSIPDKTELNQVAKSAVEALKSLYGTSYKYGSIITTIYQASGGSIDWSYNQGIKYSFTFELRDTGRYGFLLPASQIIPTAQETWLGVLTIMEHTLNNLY

Ki [1]: 0.62 nM
Ki [2]: 0.53 nM
Ki [3]: 0.00118 nM
Ki [4]: 0.00491 nM
B1: Nerita versicolor carboxypeptidase inhibitor (NvCI), native (natural protein, UniProt P86912 1-53, looked up)
chain: FHVPDDRPCINPGRCPLVPDATCTFVCKAADNDFGYECQHVWTFEGQRVGCYA
modifications: disulfide 15-51, 9-23, 27-38
notes: comprises 53 residues, C-terminal tail Cys51-Tyr52-Ala53; also called native NvCI; 3S-S native form; source: Pichia pastoris, secreted into the extracellular medium, purified (ion exchange, size exclusion); repurified by RP-HPLC

Ki [1]: 7.85 nM
Ki [2]: 4.9 nM
Ki [3]: 1 nM
Ki [4]: 2.01 nM
B2: des(15–51) NvCI folding/unfolding intermediate (natural protein, Nerita versicolor, UniProt P86912 1-53, looked up)
chain: B1 chain
modifications: disulfide 9-23, 27-38; cysteine pairing not given here
notes: differs only in the missing Cys15-Cys51 disulfide; also called intermediate IIb; fraction IIb
